Measured values published in PMC8822698, “Structural and biological insights into Klebsiella pneumoniae surface polysaccharide degradation by a bacteriophage K1 lyase: implications for clinical use” (Journal of Biomedical Science, 2022).

Biological target: the molecule itself
Test: AUC; sedimentation at 20 °C and 20,000 rpm; 25 mM Tris-HCl, 100 mM NaCl, pH 7.5; data analysed with SEDFIT

B1: K1 CPS-specific depolymerase K1 lyase of bacteriophage NTUH-K2044-K1-1 (enzyme, UniProt A0A068Q5Q5 1-651, looked up)
chain: MALIRLVAPERVFSDLASMVAYPNFQVQDKITLLGSAGGDFTFTTTASVVDNGTVFAVPGGYLLRKFVGPAYSSWFSNWTGIVTFMSAPNRHLVVDTVLQATSVLNIKSNSTLEFTDTGRILPDAAVARQVLNITGSAPSVFVPLAADAAAGSKVITVAAGALSAVKGTYLYLRSNKLCDGGPNTYGVKISQIRKVVGVSTSGGVTSIRLDKALHYNYYLSDAAEVGIPTMVENVTLVSPYINEFGYDDLNRFFTSGISANFAADLHIQDGVIIGNKRPGASDIEGRSAIKFNNCVDSTVKGTCFYNIGWYGVEVLGCSEDTEVHDIHAMDVRHAISLNWQSTADGDKWGEPIEFLGVNCEAYSTTQAGFDTHDIGKRVKFVRCVSYDSADDGFQARTNGVEYLNCRAYRAAMDGFASNTGVAFPIYRECLAYDNVRSGFNCSYGGGYVYDCEAHGSQNGVRINGGRVKGGRYTRNSSSHIFVTKDVAETAQTSLEIDGVSMRYDGTGRAVYFHGTVGIDPTLVSMSNNDMTGHGLFWALLSGYTVQPTPPRMSRNLLDDTGIRGVATLVAGEATVNARVRGNFGSVANSFKWVSEVKLTRLTFPSSAGALTVTSVAQNQDVPTPNPDLNSFVIRSSNAADVSQVAWEVYL
notes: K1 CPS-specific depolymerase (K1 lyase) encoded by orf34 of bacteriophage NTUH-K2044-K1-1, GenBank BAP15746, amino acids 1-651; Cloned into pET28a via NdeI and XhoI; This cloning would likely give an N-terminal His6 tag, but that is a surmise; also called K1 CPS depolymerase; polysaccharide depolymerase (PDP); source: E. coli BL21 (DE3), purified (nickel-chelating Sepharose, Superdex-200 gel …)
B1 was tested, and the “stoichiometry N” value was 3.
